Literature values in article PMC8544432.
pKd: −log10 of the molar value. Like-named read-outs stand apart in the source and are kept apart here.

Assays:
PBX1 (Homo sapiens) [1] = target: PBX1 (Homo sapiens) (UniProt P40424)
PBX1 (Homo sapiens) [2] = target: PBX1 (Homo sapiens) (UniProt P40424); remark: listed apart in the source

Sequence of UniProt P40424 (P40424 whole entry): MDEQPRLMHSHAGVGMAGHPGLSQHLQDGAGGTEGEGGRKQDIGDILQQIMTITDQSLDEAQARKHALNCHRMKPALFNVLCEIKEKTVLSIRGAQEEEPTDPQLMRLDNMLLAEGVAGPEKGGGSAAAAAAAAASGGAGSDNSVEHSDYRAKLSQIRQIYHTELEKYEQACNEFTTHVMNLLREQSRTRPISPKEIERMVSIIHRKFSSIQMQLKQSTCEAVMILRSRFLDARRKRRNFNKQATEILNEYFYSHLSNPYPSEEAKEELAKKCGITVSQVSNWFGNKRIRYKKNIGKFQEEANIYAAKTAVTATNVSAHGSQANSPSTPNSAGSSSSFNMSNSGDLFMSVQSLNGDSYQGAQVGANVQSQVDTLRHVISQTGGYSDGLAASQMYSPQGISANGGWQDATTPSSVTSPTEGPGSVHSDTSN

| pKd (PBX1 (Homo sapiens) [1]) | pKd (PBX1 (Homo sapiens) [2]) | Substance |
| --- | --- | --- |
| 7.10 |  | MEIS1 (from UniProt O00470) |
|  | 7.74 | PREP1 (from UniProt P55347) |
